Source: publication PMC7306444

Experiments:
Assay in all cases: fluorescence anisotropy
GST-hFMRP RGG = GST-hFMRP RGG (Homo sapiens, UniProt Q06787 531-632)
NT-hFMRP = NT-hFMRP (Homo sapiens, UniProt Q06787 218-632)
NT-hFMRP ΔKH1 = NT-hFMRP ΔKH1 (Homo sapiens, UniProt Q06787 281-632)
GST-hFMRP KH2 = GST-hFMRP KH2 (Homo sapiens, UniProt Q06787 281-425)
GST-hFMRP KH1 = GST-hFMRP KH1 (Homo sapiens, UniProt Q06787 216-280)
GST-hFMRP KH0-KH1-KH2 = GST-hFMRP KH0-KH1-KH2 (Homo sapiens, UniProt Q06787 126-425)
GST-hFMRP KH1-KH2 = GST-hFMRP KH1-KH2 (Homo sapiens, UniProt Q06787 216-425)
GST-hFMRP KH0 = GST-hFMRP KH0 (Homo sapiens, UniProt Q06787 126-201)

Question: What does the source list for UGGGGU (structured_RNA) [UG4U]?
Answer: Kd (GST-hFMRP RGG): 210 ± 18 nM; Kd (NT-hFMRP): 110 ± 16 nM; Kd (NT-hFMRP ΔKH1): 80 ± 7 nM

Question: GGGGGGGGGGGGGGGGGU (structured_RNA) [PolyG17] was tested. Which Kd (GST-hFMRP RGG) did it give?
Answer: 8.6 ± 1.2 nM

Question: And the Kd (NT-hFMRP)?
Answer: 14 ± 2 nM

Question: What about the Kd (NT-hFMRP ΔKH1) of the same binder?
Answer: 17 ± 3 nM

Question: For UUGGAUGGAUGGAUGGAU (structured_RNA) [(UGGA)4], which Kd (NT-hFMRP) is on record?
Answer: 710 ± 50 nM

Question: And the Kd (NT-hFMRP ΔKH1)?
Answer: 840 ± 39 nM

Question: Does UUGGAUGGAUGGAUGGAU (structured_RNA) [(UGGA)4] bind (GST-hFMRP KH2)?
Answer: no binding

Question: Does UUGGAUGGAUGGAUGGAU (structured_RNA) [(UGGA)4] bind (GST-hFMRP KH1)?
Answer: no binding

Question: Does UUGGAUGGAUGGAUGGAU (structured_RNA) [(UGGA)4] bind (GST-hFMRP KH0-KH1-KH2)?
Answer: no binding

Question: Does UUGGAUGGAUGGAUGGAU (structured_RNA) [(UGGA)4] bind (GST-hFMRP KH1-KH2)?
Answer: no binding

Question: Does UUGGAUGGAUGGAUGGAU (structured_RNA) [(UGGA)4] bind (GST-hFMRP KH0)?
Answer: no binding

Question: Does UGACGGACGGACGGACGU (structured_RNA) [(GACG)4] bind (GST-hFMRP RGG)?
Answer: no binding

Question: Does UGACGGACGGACGGACGU (structured_RNA) [(GACG)4] bind (NT-hFMRP)?
Answer: no binding

Question: Does UGACGGACGGACGGACGU (structured_RNA) [(GACG)4] bind (GST-hFMRP KH2)?
Answer: no binding

Question: Does UGACGGACGGACGGACGU (structured_RNA) [(GACG)4] bind (GST-hFMRP KH1)?
Answer: no binding

Question: Does UGACGGACGGACGGACGU (structured_RNA) [(GACG)4] bind (GST-hFMRP KH0-KH1-KH2)?
Answer: no binding

Question: Does UGACGGACGGACGGACGU (structured_RNA) [(GACG)4] bind (GST-hFMRP KH1-KH2)?
Answer: no binding

Question: Does UGACGGACGGACGGACGU (structured_RNA) [(GACG)4] bind (GST-hFMRP KH0)?
Answer: no binding

Question: Does CCCCCCCACUUCCCCCCU (ssRNA) [ACUU] bind (NT-hFMRP)?
Answer: no binding

Question: Does CCCCCCCUGGACCCCCCU (ssRNA) [UGGA] bind (NT-hFMRP)?
Answer: no binding

Question: With UGGACUUGGACUUGGACU (ssRNA, m6A at position 10) [UGGm6ACU] as the binder, how does the Kd (NT-hFMRP) read?
Answer: 1250 ± 610 nM
